The source of these data is patent US20090074782A1 (ONCOMED PHARMACEUTICALS, published 2009).

The labels stand for the following.
B7: RSPO1-CD4™ (ligand)
chain: SRGIKGKRQRRISAEGSQACAKGCELCSEVNGCLKCSPKLFILLERNDIRQVGVCLPSCPPGYFDARNPDMNKCIKCKIEHCEACFSHNFCTKCKEGLYLHKGRCYPACPEGSSAANGTMECSSPAQCEMSEWSPWGPCSKKQQLCGFRRGSEERTRRVLHAPVGDHAACSDTKETRRCTVRRVPCPEGQKRRKGGQGRRENANRNLARKESKEAGAGSRRRKGQQQQQQQGTVGPLTSAGPA
notes: domain: transmembrane domain; Transiently expressed on HEK 293 cells together with GFP; also called cell-surface RSPO1; RSPO1-CD4TM; not shown: transmembrane domain of CD4

The test “RSPO1-CD4™” deals with B7. Briefly: FACS, Fc fusion on HEK 293 cells transfected with RSPO1-CD4™ and GFP. The protocol:
(§1) To determine the mechanism by which RSPO1 activates beta-catenin signaling, FACS analysis was used to assess binding between RSPO1 and LGR5. In certain embodiments, binding between soluble LGR5 and cell-surface RSPO1 was determined. A cell-surface RSPO1 protein was generated by ligating full-length human RSPO1 to the transmembrane domain of CD4 using standard recombinant DNA techniques (RSPO1-CD4™). HEK 293 cells were transiently transfected RSPO1-CD4™ and GFP. After 48 hours, cells were suspended in ice cold PBS containing 2% FCS and then incubated on ice in the presence of LGR5-Fc, LRP6-ECD-Fc (containing the extracellular domain of human LRP6 fused to an Fc domain), LRP6E1-2-Fc (containing amino acids 1-629 of human LRP6 fused to an Fc domain), or various FZD-Fc constructs, including FZD1-10. […] Only a weak interaction between RSPO1 and the WNT co-receptor LRP6 was detected.
A general note: Flow cytometry measures light scatter and fluorescence of single cells or particles in a stream.

The target of the next test is T1, FLAG-LGR5-CD4™ (human, UniProt O75473 22-564).
T1 construct: domain: transmembrane domain; Transiently expressed on HEK 293 cells together with GFP; also called variant cell-surface LGR5 protein; cell-associated LGR5 construct; not shown: N-terminal FLAG tag; transmembrane domain of CD4
T1 sequence: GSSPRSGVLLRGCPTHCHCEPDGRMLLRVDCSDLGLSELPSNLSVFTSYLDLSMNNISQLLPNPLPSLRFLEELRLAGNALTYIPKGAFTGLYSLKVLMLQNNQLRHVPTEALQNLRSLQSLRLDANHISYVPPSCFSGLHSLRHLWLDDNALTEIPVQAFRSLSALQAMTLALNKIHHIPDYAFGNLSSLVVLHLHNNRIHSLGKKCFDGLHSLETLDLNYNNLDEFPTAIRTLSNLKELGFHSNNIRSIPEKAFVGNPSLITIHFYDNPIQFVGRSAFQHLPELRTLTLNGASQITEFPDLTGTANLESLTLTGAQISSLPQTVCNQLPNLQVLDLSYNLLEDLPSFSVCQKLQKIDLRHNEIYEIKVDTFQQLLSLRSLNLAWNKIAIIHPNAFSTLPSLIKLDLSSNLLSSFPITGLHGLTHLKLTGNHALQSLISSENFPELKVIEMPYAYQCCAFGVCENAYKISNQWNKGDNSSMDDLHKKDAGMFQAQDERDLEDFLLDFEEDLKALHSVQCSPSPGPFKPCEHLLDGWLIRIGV
Kind of test: FACS, Fc fusion on HEK 293 cells transfected with FLAG-LGR5-CD4™ and GFP, with heparin. The protocol:
In certain embodiments, binding between soluble RSPO1 and cell-surface LGR5 was determined. A variant cell-surface LGR5 protein was generated by ligating amino acids 22-564 of LGR5 to an N-terminal FLAG tag and to the transmembrane domain of CD4 using standard recombinant DNA techniques (FLAG-LGR5-CD4™). HEK 293 cells were transiently transfected with FLAG-LGR5-CD4™ and GFP. After 48 hours, cells were suspended in ice cold PBS containing 2% FCS and heparin and then incubated on ice in the presence of RSPO1-Fc, FZD8-Fc, or a FLAG antibody as a positive control.

In the next test the target is FZD2-Fc (UniProt Q14332 24-159). Kind of test: FACS, Fc fusion on HEK 293 cells transfected with RSPO1-CD4™ and GFP. The protocol: as §1
For the next test, the target named is FZD7-Fc (UniProt O75084 33-170). The test is described as above. The method, then:
as §1

Another test has as its target T2, FZD1-Fc (UniProt Q9UP38 87-237).
T2 construct: One of the 'various FZD-Fc constructs, including FZD1-10'; not shown: Fc
The test is described as above. The method, then: as §1

B1: FZD9-Fc (Fc fusion, UniProt O00144 23-159, looked up)
chain: LEIGRFDPERGRGAAPCQAVEIPMCRGIGYNLTRMPNLLGHTSQGEAAAELAEFAPLVQYGCHSHLRFFLCSLYAPMCTDQVSTPIPACRPMCEQARLRCAPIMEQFNFGWPDSLDCARLPTRNDPHALCMEAPENA
notes: One of the 'various FZD-Fc constructs, including FZD1-10'; not shown: Fc
With B1, in the test with RSPO1-CD4™, the binding result is “no binding”.

B2: FZD10-Fc (Fc fusion, UniProt Q9ULW2 21-154, looked up)
chain: ISSMDMERPGDGKCQPIEIPMCKDIGYNMTRMPNLMGHENQREAAIQLHEFAPLVEYGCHGHLRFFLCSLYAPMCTEQVSTPIPACRVMCEQARLKCSPIMEQFNFKWPDSLDCRKLPNKNDPNYLCMEAPNNG
notes: One of the 'various FZD-Fc constructs, including FZD1-10'; also called soluble FZD10; not shown: Fc
Regarding B2, the binding result with RSPO1-CD4™ is given as “no binding”.

B3: FZD6-Fc (Fc fusion, UniProt O60353 19-146, looked up)
chain: HSLFTCEPITVPRCMKMAYNMTFFPNLMGHYDQSIAAVEMEHFLPLANLECSPNIETFLCKAFVPTCIEQIHVVPPCRKLCEKVYSDCKKLIDTFGIRWPEELECDRLQYCDETVPVTFDPHTEFLGP
notes: as for B1
On to B3, for which the binding result with RSPO1-CD4™ is “no binding”.

B4: FZD3-Fc (Fc fusion, UniProt Q9NPG1 23-143, looked up)
chain: HSLFSCEPITLRMCQDLPYNTTFMPNLLNHYDQQTAALAMEPFHPMVNLDCSRDFRPFLCALYAPICMEYGRVTLPCRRLCQRAYSECSKLMEMFGVPWPEDMECSRFPDCDEPYPRLVDL
notes: as for B1
Regarding B4, the binding result with RSPO1-CD4™ is “no binding”.

B5: FZD4-Fc (Fc fusion, UniProt Q9ULV1 40-170, looked up)
chain: EEERRCDPIRISMCQNLGYNVTKMPNLVGHELQTDAELQLTTFTPLIQYGCSSQLQFFLCSVYVPMCTEKINIPIGPCGGMCLSVKRRCEPVLKEFGFAWPESLNCSKFPPQNDHNHMCMEGPGDEEVPLP
notes: as for B1
For the molecule B5, the binding result with RSPO1-CD4™ is reported as “no binding”.

B6: FZD8-Fc (Fc fusion, UniProt Q9H461 28-158, looked up)
chain: ASAKELACQEITVPLCKGIGYNYTYMPNQFNHDTQDEAGLEVHQFWPLVEIQCSPDLKFFLCSMYTPICLEDYKKPLPPCRSVCERAKAGCAPLMRQYGFAWPDRMRCDRLPEQGNPDTLCMDYNRTDLTT
notes: One of the 'various FZD-Fc constructs, including FZD1-10'; also used against FLAG-LGR5-CD4™ cells; also called soluble FZD8; not shown: Fc
Consider B6, for which the binding result with FLAG-LGR5-CD4™ and in the test with RSPO1-CD4™ was “no binding” throughout.

For B7, the binding result with FZD2-Fc, in the test with FZD7-Fc and with FZD1-Fc was “no binding” throughout.

B8: FZD5-Fc (Fc fusion, UniProt Q13467 27-157, looked up)
chain: ASKAPVCQEITVPMCRGIGYNLTHMPNQFNHDTQDEAGLEVHQFWPLVEIQCSPDLRFFLCSMYTPICLPDYHKPLPPCRSVCERAKAGCSPLMRQYGFAWPERMSCDRLPVLGRDAEVLCMDYNRSEATT
notes: as for B1
For B8, the binding result with RSPO1-CD4™ was “no binding”.
